Reference: patent publication US20210253720A1 (KEROS THERAPEUTICS, published 2021)

T1: ALK2-FC (UniProt Q04771 21-123, limits assumed)
T1 construct: Only the embodiments speak of 'human ALK2'; not shown: Fc part
T1 sequence (looked up): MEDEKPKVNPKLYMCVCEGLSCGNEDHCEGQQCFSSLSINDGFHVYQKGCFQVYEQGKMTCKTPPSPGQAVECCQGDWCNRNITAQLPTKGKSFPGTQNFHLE

B1: Antibody 1, monovalent fAB in fAB-FH format (Fab, V domains shown)
VH: QVQLVQSGAEVKKPGSSVKVSCKASGGTFSSYGVSWVRQAPGQGLEWMGGIIPHFGIANYAQKFQGRVTITADESTSTAYMELSSLRSEDTAVYYCAREIGSLDIWGQGTLVTVSS
VL: DIVLTQPPSVSGAPGQRVTISCSGSSSNIGSNYVSWYQQLPGTAPKVLIYKNNHRPSGVPDRFSGSKSGTSASLAITGLQAEDEADYYCASWDHSDRFYVFGGGTKLTVLG
notes: also called Anti-ALK2 fAB
B2: Antibody 2, monovalent fAB in fAB-FH format (Fab, V domains shown)
VH: EVQLVESGGGLVKPGGSLRLSCAASGFTFSSHAMSWVRQAPGKGLEWVGRIKSKADSGTTDYAAPVKGRFTISRDDSKNTLYLQMNSLKTEDTAVYYCARDYGVAFAYWGQGTLVTVSS
VL: DIELTQPPSVSVSPGQTASITCSGDSIPSFFASWYQQKPGQAPVLVIYRDSNRPSGIPERFSGSNSGNTATLTISGTQAEDEADYYCYVTAPWKSIWVFGGGTKLTVLG
notes: also called Anti-ALK2 fAB
B3: Antibody 3, monovalent fAB in fAB-FH format (Fab, V domains shown)
VH: EVQLVESGGGLVKPGGSLRLSCAASGFTFNSSAMSWVRQAPGKGLEWVGRIKSKRDGYTTDYAAPVKGRFTISRDDSKNTLYLQMNSLKTEDTAVYYCARDYGGLKFDYWGQGTLVTVSS
VL: DIELTQPPSVSVSPGQTASITCSGDNIGTKYAYWYQQKPGQAPVLVIYGDSDRPSGIPERFSGSNSGNTATLTISGTQAEDEADYYCYSADAQQMKAVFGGGTKLTVLG
notes: also called Anti-ALK2 fAB
B4: Antibody 5, monovalent fAB in fAB-FH format (Fab, V domains shown)
VH: EVQLLESGGGLVQPGGSLRLSCAASGFTFSSAAMHWVRQAPGKGLEWVSVISSDGGSTYYADSVKGRFTISRDNSKNTLYLQMNSLRAEDTAVYYCARAGFILGSLGVAWMDVWGQGTLVTVSS
VL: DIELTQPPSVSVSPGQTASITCSGDSLGSKSVHWYQQKPGQAPVLVIYRDSKRPSGIPERFSGSNSGNTATLTISGTQAEDEADYYCQTYDWSHFGWVFGGGTKLTVLG
B5: Antibody 4, monovalent fAB in fAB-FH format (Fab, V domains shown)
VH: QVQLVQSGAEVKKPGSSVKVSCKASGGTFSSYAIHWVRQAPGQGLEWMGRIIPDFGTANYAQKFQGRVTITADESTSTAYMELSSLRSEDTAVYYCARGPTQAIHYFAYWGQGTLVTVSS
VL: DIELTQPPSVSVSPGQTASITCSGDNLRKYSAHWYQQKPGQAPVLVIYYDNKRPSGIPERFSGSNSGNTATLTISGTQAEDEADYYCQVYASVHRMVFGGGTKLTVLG
notes: also called Anti-ALK2 fAB
B6: Antibody 6, monovalent fAB in fAB-FH format (Fab, V domains shown)
VH: EVQLLESGGGLVQPGGSLRLSCAASGFTFGRFVMHWVRQAPGKGLEWVSVIGYSGSSTYYADSVKGRFTISRDNSKNTLYLQMNSLRAEDTAVYYCAREPGYYYPSGYYRGPGYWMDVWGQGTLVTVSS
VL: DIQMTQSPSSLSASVGDRVTITCRASQGISGNWLTWYQQKPGKAPKLLIYDASNLQSGVPSRFSGSGSGTDFTLTISSLQPEDFATYYCHQSYRGPMTFGQGTKVEIKR
notes: also called Anti-ALK2 fAB
B7: Antibody 9, monovalent fAB in fAB-FH format (Fab, V domains shown)
VH: QVQLVQSGAEVKKPGSSVKVSCKASGGTFSTHAISWVRQAPGQGLEWMGLIQPRFGTANYAQKFQGRVTITADESTSTAYMELSSLRSEDTAVYYCARDYYGGMAYWGQGTLVTVSS
VL: DIVLTQPPSVSGAPGQRVTISCSGSSSNIGQNYVSWYQQLPGTAPKLLIYDNSKRPSGVPDRFSGSKSGTSASLAITGLQAEDEADYYCSSWDLLSKSRVFGGGTKLTVLG
notes: also called Anti-ALK2 fAB
B8: Antibody 8, monovalent fAB in fAB-FH format (Fab, V domains shown)
VH: EVQLLESGGGLVQPGGSLRLSCAASGFTFSDYAMHWVRQAPGKGLEWVSSIFYSGSNTYYADSVKGRFTISRDNSKNTLYLQMNSLRAEDTAVYYCARPKSYASGPFAYWGQGTLVTVSS
VL: DIELTQPPSVSVSPGQTASITCSGDALRYYIAHWYQQKPGQAPVLVIYYNNNRPSGIPERFSGSNSGNTATLTISGTQAEDEADYYCQSYGPGSVVFGGGTKLTVLG
notes: also called Anti-ALK2 fAB

Biological target: T1, ALK2-FC
Test: BLI, ForteBio Octet; fAB against ALK2-FC; fAB, ForteBio Octet against ALK2-FC

Binder | Kd
B1 | 4 nM

Biological target: T1, ALK2-FC
Test: BLI, ForteBio Octet; fAB against ALK2-FC

Binder | Kd
B2 | 0.7 nM
B3 | 4.4 nM

Biological target: ALK2 on C2C12-BRE-Luciferase cells
Sequence (P37172 whole entry): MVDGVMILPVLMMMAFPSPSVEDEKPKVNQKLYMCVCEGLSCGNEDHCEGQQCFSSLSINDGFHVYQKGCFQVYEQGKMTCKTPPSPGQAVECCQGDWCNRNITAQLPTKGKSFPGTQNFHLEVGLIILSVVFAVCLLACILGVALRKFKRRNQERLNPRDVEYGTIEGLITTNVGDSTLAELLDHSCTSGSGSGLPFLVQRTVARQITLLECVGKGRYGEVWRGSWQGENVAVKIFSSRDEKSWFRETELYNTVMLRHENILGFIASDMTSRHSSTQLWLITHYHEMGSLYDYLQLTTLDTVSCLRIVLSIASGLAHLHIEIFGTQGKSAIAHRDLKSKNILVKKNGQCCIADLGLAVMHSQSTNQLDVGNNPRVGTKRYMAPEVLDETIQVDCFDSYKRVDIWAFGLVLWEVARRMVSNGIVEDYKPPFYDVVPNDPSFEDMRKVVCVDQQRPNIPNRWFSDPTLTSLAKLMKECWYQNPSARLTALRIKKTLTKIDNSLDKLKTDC
Test: not given

Binder | IC50 (3 Param fit), inhibition of BMP6 (40 ng/mL)-induced SMAD1 (BRE) luciferase signal in C2C12 cells, ng/mL is the unit of the x axis | IC50 (4 Param fit), inhibition of BMP6 (40 ng/mL)-induced SMAD1 (BRE) luciferase signal in C2C12 cells, ng/mL is the unit of the x axis
B4 | 710 ng/mL | 754 ng/mL
B2 | 145 ng/mL | 221 ng/mL
B3 | 1460 ng/mL | 1490 ng/mL
B1 | 1750 ng/mL | 1830 ng/mL
B5 | 465 ng/mL | 462 ng/mL

Biological target: ALK2 on C2C12-BRE-Luciferase cells
Test: not given
Remark: another data set of the same source

Binder | IC50, inhibition of BMP6 (40 ng/mL)-induced SMAD1 (BRE) luciferase signal in C2C12 cells; fit type not given
B6 | 1.16 µg/mL
B7 | 1.27 µg/mL
B8 | 0.367 µg/mL

Biological target: T1, ALK2-FC
Test: BLI, ForteBio Octet RED384; monovalent fAB-FH against ALK2-FC

Binder | Kd | koff
B6 | 2.9 nM | 0.00349 s⁻¹
B7 | 14 nM | 0.0149 s⁻¹
B2 | 0.7 nM | 0.000357 s⁻¹
B3 | 4.4 nM | 0.00149 s⁻¹
B1 | 4 nM | 0.00172 s⁻¹
B5 | 1.8 nM | 0.000759 s⁻¹
B8 | 6.3 nM | 0.00576 s⁻¹
